Legend:
[1] = biological target: T1, trimeric murine IL-2 receptor (IL-2Rα, IL-2Rβ, and IL-2Rγ) on CTLL-2 cells (murine, UniProt P01590 22-268; P16297 27-539; P34902 23-369); experiment: cell-based or functional assay
T1 sequence (looked up) 1: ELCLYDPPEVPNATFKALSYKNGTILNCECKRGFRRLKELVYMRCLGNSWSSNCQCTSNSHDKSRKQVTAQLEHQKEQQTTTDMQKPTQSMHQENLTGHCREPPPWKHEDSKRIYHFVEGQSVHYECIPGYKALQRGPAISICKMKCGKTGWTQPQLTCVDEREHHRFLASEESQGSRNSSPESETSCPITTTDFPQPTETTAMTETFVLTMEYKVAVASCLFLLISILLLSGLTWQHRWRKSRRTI
T1 sequence (looked up) 2: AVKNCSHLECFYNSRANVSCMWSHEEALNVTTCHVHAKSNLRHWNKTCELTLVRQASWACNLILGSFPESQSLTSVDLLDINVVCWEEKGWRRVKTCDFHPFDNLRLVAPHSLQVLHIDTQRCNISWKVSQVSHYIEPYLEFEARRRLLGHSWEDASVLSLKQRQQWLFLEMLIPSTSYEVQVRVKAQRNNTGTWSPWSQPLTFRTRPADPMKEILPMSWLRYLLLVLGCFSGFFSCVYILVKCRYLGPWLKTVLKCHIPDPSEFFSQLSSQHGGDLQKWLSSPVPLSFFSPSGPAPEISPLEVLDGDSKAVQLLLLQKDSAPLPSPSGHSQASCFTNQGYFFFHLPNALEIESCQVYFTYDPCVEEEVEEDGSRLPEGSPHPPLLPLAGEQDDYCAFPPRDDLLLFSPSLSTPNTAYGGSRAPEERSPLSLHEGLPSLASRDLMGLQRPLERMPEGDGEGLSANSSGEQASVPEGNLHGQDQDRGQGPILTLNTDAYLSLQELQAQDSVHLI
T1 sequence (looked up) 3: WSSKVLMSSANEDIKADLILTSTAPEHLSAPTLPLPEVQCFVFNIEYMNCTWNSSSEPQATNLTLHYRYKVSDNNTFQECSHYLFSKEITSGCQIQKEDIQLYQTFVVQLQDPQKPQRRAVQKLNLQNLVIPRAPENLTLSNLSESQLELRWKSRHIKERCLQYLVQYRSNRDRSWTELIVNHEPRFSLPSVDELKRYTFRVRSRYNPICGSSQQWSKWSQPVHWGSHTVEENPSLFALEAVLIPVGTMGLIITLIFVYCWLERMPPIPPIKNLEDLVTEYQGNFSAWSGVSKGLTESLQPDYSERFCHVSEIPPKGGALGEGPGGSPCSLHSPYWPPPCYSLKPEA

[2] = biological target: T2, IL-2Rα (recombinant IL-2 receptor α, R&D Systems Cat #: 223-2A/CF), biotinylated (human, UniProt P01589 22-213, limits assumed, biotinylated using sulfo-NHS-LC-LC-Biotin); experiment: SPR (Biacore), CM4 chip, biotinylated receptor on neutravidin
T2 construct: Bought reagent; also used here as the IL-2Rα partner of the in-silico analysis of PDB 2B5I (another construct); also called IL-2RA; CD25
T2 sequence (looked up): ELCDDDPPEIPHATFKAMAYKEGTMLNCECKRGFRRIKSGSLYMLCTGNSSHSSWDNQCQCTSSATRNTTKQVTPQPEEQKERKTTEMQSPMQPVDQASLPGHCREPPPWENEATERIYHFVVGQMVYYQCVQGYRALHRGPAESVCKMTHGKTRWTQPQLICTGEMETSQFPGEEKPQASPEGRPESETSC

[3] = biological target: T2, IL-2Rα (recombinant IL-2 receptor α, …); experiment: SPR (Biacore), C1 or CM5 chip, biotinylated receptor on neutravidin
Description: (§1) Data for binding of Fc-IL-2 variant fusion proteins to IL-2Rα, IL-2Rβ and IL-2Rβγ heterodimer were collected on a Biacore platform using either C1 or CM5 chips. Neutravidin was immobilized using standard amine coupling methods and used to capture biotinylated receptors. Commercially sourced IL-2Rα (R&D Systems Cat #: 223-2A/CF) and IL-2Rβ receptors (R&D Systems Cat #:224-2B-025/CF) were biotinylated using sulfo-NHS-LC-LC-Biotin, desalted, and then captured on the neutravidin surfaces. […] Distinct purification tags were appended to the C-terminus of each chain. A FLAG epitope tag ([…]; SEQ ID NO: 257) was added at the C-terminus of IL-2Rβ subunit, followed by C-terminal Hiss tag ([…]; SEQ ID NO: 258). An AviTag™ ([…]; SEQ ID NO: 259) motif on the IL-2Rγ subunit allowed for site-specific biotinylation of the heterodimer.
(§2) Fc IL 2 fusion protein variants, Fc protein, and Proleukin were injected at various concentrations over these surfaces. Kinetic data obtained from these injections was used to extract kₒₙ and koff to calculate KD (KD=koff/kₒₙ). Experiments were run at 25° C. in HBS-EP+ running buffer (10 mM HEPES, 150 mM NaCl, 3 mM EDTA, 0.05% Tween20, pH 7.4 with 0.1 mg/ml BSA). Data shown in Table 5 for Fc IL-2 fusion protein variants binding to the indicated IL-2R surfaces were derived from the global fitting of data obtained from 2-5 independent surfaces.

[4] = biological target: T3, IL-2Rβ (recombinant IL-2 receptor β, R&D Systems Cat #:224-2B-025/CF), biotinylated (UniProt P14784 27-239, limits assumed, biotinylated using sulfo-NHS-LC-LC-Biotin); experiment: as above
T3 construct: Bought reagent; also called IL-2RB; CD122
T3 sequence (looked up): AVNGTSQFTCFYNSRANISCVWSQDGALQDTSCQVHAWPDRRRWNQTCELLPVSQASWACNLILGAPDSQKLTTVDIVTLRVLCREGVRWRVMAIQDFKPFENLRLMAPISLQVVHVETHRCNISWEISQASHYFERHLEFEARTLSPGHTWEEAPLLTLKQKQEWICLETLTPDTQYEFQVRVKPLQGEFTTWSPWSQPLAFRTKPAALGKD
Description: as §1, §2

[5] = biological target: T4, IL-2Rβγ heterodimer, custom biotinylated Fc fusion protein (human IL-2Rβ 27-240-Fc-FLAG / human IL-2Rγ … (human, site-specific biotinylation at the AviTag)); experiment: as above
T4 construct: Extracellular regions fused to IgG1 knob-in-hole Fc subunits with tags; also called IL-2 receptor βγ heterodimer; Fc-IL-2Rβγ
T4 sequence (chain, as listed by the source limits assumed): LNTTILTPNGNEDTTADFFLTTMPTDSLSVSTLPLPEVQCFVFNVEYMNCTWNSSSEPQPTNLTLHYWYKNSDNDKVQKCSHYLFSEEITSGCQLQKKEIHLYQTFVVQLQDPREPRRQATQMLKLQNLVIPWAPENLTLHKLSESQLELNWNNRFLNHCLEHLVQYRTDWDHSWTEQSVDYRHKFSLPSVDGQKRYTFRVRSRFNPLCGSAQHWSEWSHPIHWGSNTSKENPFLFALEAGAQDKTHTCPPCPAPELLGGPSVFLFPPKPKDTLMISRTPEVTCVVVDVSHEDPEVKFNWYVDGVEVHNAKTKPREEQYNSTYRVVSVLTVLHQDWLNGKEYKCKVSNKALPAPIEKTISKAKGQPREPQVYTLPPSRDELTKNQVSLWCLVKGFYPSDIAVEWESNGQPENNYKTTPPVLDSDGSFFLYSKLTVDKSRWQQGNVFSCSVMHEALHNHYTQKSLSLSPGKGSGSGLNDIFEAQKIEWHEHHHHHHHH
Description: as §1, §2

STAT5 activation of CTLL-2 cells, EC50 [1]: 0.002 nM
Kd [2]: 60 nM
Kd [3]: 15 nM
Kd [4]: 7000 nM
Kd [5]: 0.142 nM
B1: Fc-IL-2 heterodimer 117.46 (hIL-2v_Δ1-5_C125S), native IL-2Rα binding interface (Fc fusion)
chain 1: ESKYGPPCPPCPAPEAAGGPSVFLFPPKPKDTLMISRTPEVTCVVVDVSQEDPEVQFNWYVDGVEVHNAKTKPREEQFNSTYRVVSVLTVLHQDWLNGKEYKCKVSNKGLPSSIEKTISKAKGQPREPQVYTLPPSQEEMTKNQVSLWCLVKGFYPSDIAVEWESNGQPENNYKTTPPVLDSDGSFFLYSRLTVDKSRWQEGNVFSCSVMHEALHNHYTQKSLSLSLGGGGGSGGGGSGGGGSGGGGSSTKKTQLQLEHLLLDLQMILNGINNYKNPKLTRMLTFKFYMPKKATELKHLQCLEEELKPLEEVLNLAQSKNFHLRPRDLISNINVIVLELKGSETTFMCEYADETATIVEFLNRWITFSQSIISTLT
chain 2: ESKYGPPCPPCPAPEAAGGPSVFLFPPKPKDTLMISRTPEVTCVVVDVSQEDPEVQFNWYVDGVEVHNAKTKPREEQFNSTYRVVSVLTVLHQDWLNGKEYKCKVSNKGLPSSIEKTISKAKGQPREPQVYTLPPSQEEMTKNQVSLSCAVKGFYPSDIAVEWESNGQPENNYKTTPPVLDSDGSFFLVSRLTVDKSRWQEGNVFSCSVMHEALHNRFTQKSLSLSLGK
notes: hIgG4 knob-in-hole Fc heterodimer

Source: US20240269235A1 (Gilead, published 2024)
